1 protein from PMC3858362, “A Soluble Fucose-Specific Lectin from Aspergillus fumigatus Conidia - Structure, Specificity and Possible Role in Fungal Pathogenicity” (PLoS ONE, 2013) can be followed below.

The series deals with the molecule itself. Description: AUC; sedimentation velocity; AFL 0.04-0.30 mg/ml in 20 mM Tris/HCl, 300 mM NaCl, pH 7.4; 20 °C, 42,000 rpm; continuous c(s) analysis in Sedfit.

Usually stoichiometry N stands for a count of units in the complex or per binding partner.

B1: Aspergillus fumigatus lectin (AFL), recombinant (natural protein)
chain: MSTPGAQQVLFRTGIAAVNSTNHLRVYFQDVYGSIRESLYEGSWANGTEKNVIGNAKLGSPVAATSKELKHIRVYTLTEGNTLQEFAYDSGTGWYNGGLGGAKFQVAPYSCIAAVFLAGTDALQLRIYAQKPDNTIQEYMWNGDGWKEGTNLGGALPGTGIGATSFRYTDYNGPSIRIWFQTDDLKLVQRAYDPHKGWYPDLVTIFDRAPPRTAIAATSFGAGNSSIYMRIYFVNSDNTIWQVCWDHGKGYHDKGTITPVIQGSEVAIISWGSFANNGPDLRLYFQNGTYISAVSEWVWNRAHGSQLGRSALPPA
notes: Fucose-specific lectin AFL of Aspergillus fumigatus, gene AFUA_5G14740 (Af293 genome); cloned from a commercial cDNA library of A. fumigatus ATCC 13073 with primers from the start ATG to an in-frame stop codon; 314 aa long without the initial Met; Cloned NdeI/HindIII into pET29a with its own stop codon; no tag is mentioned; also called rAFL; AfuFleA
As for B1, the “stoichiometry N” value is 2.
